# Results taken from patent publication US20040146896A1, “Methods and compositions for diagnosing and treating companion animal cancer” (priority 2002, published 2004).
# Assays:
# U937 human tumor cells = assay: Cell Death Detection ELISA apoptosis assay, U937; type: cell-based; conditions: mammalian expressed TRAIL supernatants; commercial human TRAIL and Fas ligand 100 ng/ml (FIGS. 19B, 20B, 21B)
# Procedure: 4. Cell Death Detection ELISA Plus assay for apoptosis. The assay is based on a quantitative sandwich-enzyme-immunoassay-principle using mouse monoclonal antibodies directed against DNA and histones, respectively. This allows the specific determination of mono- and oligonucleosomes in the cytoplasmatic fraction of cell lysates. Roche kit, Cat. # 1 774 425, was used for this assay. 0.1 ml of U937 or any other types of cells (2×104 ) and 0.1 ml of tissue culture supernatant or other solutions containing apoptosis inducing agents (e.g. TRAIL) were used for this assay in 48-well plate. After 24 or 48 hrs of incubation at 3 7° C., the cells were spun at 2,000 rpm for 10 minutes. Cell pellet was then resuspended in 200 ul lysis buffer and incubated for 30 minutes at room temperature. The cell lysate was then centrifuged at 2,000 rpm for 10 minutes and diluted at 1:10 with incubation buffer. 20 ul of diluted lysate was added to coated plate (MTP from kit) and 80 ul of the immunoreagent was added to each well. MTP was then covered with adhesive cover foil and incubated under gentle shaking for 2 hours at room temperature. The solution was then removed thoroughly by tapping and subsequently rinsed 3 times with 250 ul incubation buffer. 100 ul ABTS solution was added and incubated on a plate shaker at 250 rpm for 15 minutes. Readings at 405 nm and 490 nm (background) were done on ELISA reader. […]
# Normal dog hepatocytes = assay: Cell Death ELISA apoptosis assay, normal dog hepatocytes; type: cell-based; conditions: mammalian expressed TRAIL supernatants; Fas ligand 100 ng/ml (FIG. 21B)
# Procedure: 4. Cell Death Detection ELISA Plus assay for apoptosis. The assay is based on a quantitative sandwich-enzyme-immunoassay-principle using mouse monoclonal antibodies directed against DNA and histones, respectively. This allows the specific determination of mono- and oligonucleosomes in the cytoplasmatic fraction of cell lysates. Roche kit, Cat. # 1 774 425, was used for this assay. 0.1 ml of U937 or any other types of cells (2×104 ) and 0.1 ml of tissue culture supernatant or other solutions containing apoptosis inducing agents (e.g. TRAIL) were used for this assay in 48-well plate. After 24 or 48 hrs of incubation at 3 7° C., the cells were spun at 2,000 rpm for 10 minutes. Cell pellet was then resuspended in 200 ul lysis buffer and incubated for 30 minutes at room temperature. The cell lysate was then centrifuged at 2,000 rpm for 10 minutes and diluted at 1:10 with incubation buffer. 20 ul of diluted lysate was added to coated plate (MTP from kit) and 80 ul of the immunoreagent was added to each well. MTP was then covered with adhesive cover foil and incubated under gentle shaking for 2 hours at room temperature. The solution was then removed thoroughly by tapping and subsequently rinsed 3 times with 250 ul incubation buffer. 100 ul ABTS solution was added and incubated on a plate shaker at 250 rpm for 15 minutes. Readings at 405 nm and 490 nm (background) were done on ELISA reader.
# 3. […]
# hepatocyte = conditions: literature (Lawrence et al. 2001); cited from earlier work
# various tumor cell lines = conditions: literature (Walczak 1999; Wiley 1995; Pitti 1996); cited from earlier work
# [1] = test system: nontransformed, normal cells; conditions: literature (Walczak 1999; Wiley 1995; Pitti 1996); cited from earlier work
# human tumors = conditions: mice and nonhuman primates; literature (Walczak 1999; Ashkenazi 1999); cited from earlier work
# [2] = test system: isolated human heptocytes; conditions: literature (Jo et al. 2000); cited from earlier work
# non-human hepatocytes = conditions: literature (Jo et al. 2000); cited from earlier work
substance,measurement,setting,value
"Fas ligand: Fas ligand (100 ng/ml, Upstate Biotechnology), control; well known agent which causes liver toxicity in vivo [reference compound]","induction of apoptosis of U937 cells, in words",U937 human tumor cells,sensitive
same,"apoptosis of normal dog hepatocytes, in words",Normal dog hepatocytes,very sensitive
"His-tagged TRAIL: His-tagged recombinant TRAIL version, Lawrence et al. 2001",hepatocyte toxicity (apoptosis) of recombinant TRAIL versions,hepatocyte,induced substantial apoptosis
TRAIL protein: TNF-related apoptosis-inducing ligand as reported in the literature,apoptosis in various tumor cell lines,various tumor cell lines,induce apoptosis
same,"apoptosis in nontransformed, normal cells",[1],"not in nontransformed, normal cells"
same,apoptosis in human tumors after administration of TRAIL,human tumors,can induce apoptosis in human tumors
same,cytotoxicity in normal organs or tissues,human tumors,no cytotoxicity
"native form of soluble TRAIL protein: native form of soluble TRAIL protein, Lawrence et al. 2001",hepatocyte toxicity (apoptosis) of recombinant TRAIL versions,hepatocyte,no effect
"polyhistidine-tagged recombinant human TRAIL (residues 114-281): polyhistidine-tagged recombinant human TRAIL (residues 114-281), Jo et al. 2000",apoptosis in vitro in isolated human hepatocytes,[2],induce apoptosis
same,apoptosis in vitro in non-human hepatocytes,non-human hepatocytes,not in non-human hepatocytes
